From paper PMC8298264, “Function of cofactor Akirin2 in the regulation of gene expression in model human neutrophil-like HL60 cells” (Bioscience Reports, 2021)

B1: sp¦Q92878¦RAD50_HUMAN (protein, UniProt Q92878 1-1312, looked up)
DNA repair protein RAD50: MSRIEKMSILGVRSFGIEDKDKQIITFFSPLTILVGPNGAGKTTIIECLKYICTGDFPPGTKGNTFVHDPKVAQETDVRAQIRLQFRDVNGELIAVQRSMVCTQKSKKTEFKTLEGVITRTKHGEKVSLSSKCAEIDREMISSLGVSKAVLNNVIFCHQEDSNWPLSEGKALKQKFDEIFSATRYIKALETLRQVRQTQGQKVKEYQMELKYLKQYKEKACEIRDQITSKEAQLTSSKEIVKSYENELDPLKNRLKEIEHNLSKIMKLDNEIKALDSRKKQMEKDNSELEEKMEKVFQGTDEQLNDLYHNHQRTVREKERKLVDCHRELEKLNKESRLLNQEKSELLVEQGRLQLQADRHQEHIRARDSLIQSLATQLELDGFERGPFSERQIKNFHKLVRERQEGEAKTANQLMNDFAEKETLKQKQIDEIRDKKTGLGRIIELKSEILSKKQNELKNVKYELQQLEGSSDRILELDQELIKAERELSKAEKNSNVETLKMEVISLQNEKADLDRTLRKLDQEMEQLNHHTTTRTQMEMLTKDKADKDEQIRKIKSRHSDELTSLLGYFPNKKQLEDWLHSKSKEINQTRDRLAKLNKELASSEQNKNHINNELKRKEEQLSSYEDKLFDVCGSQDFESDLDRLKEEIEKSSKQRAMLAGATAVYSQFITQLTDENQSCCPVCQRVFQTEAELQEVISDLQSKLRLAPDKLKSTESELKKKEKRRDEMLGLVPMRQSIIDLKEKEIPELRNKLQNVNRDIQRLKNDIEEQETLLGTIMPEEESAKVCLTDVTIMERFQMELKDVERKIAQQAAKLQGIDLDRTVQQVNQEKQEKQHKLDTVSSKIELNRKLIQDQQEQIQHLKSTTNELKSEKLQISTNLQRRQQLEEQTVELSTEVQSLYREIKDAKEQVSPLETTLEKFQQEKEELINKKNTSNKIAQDKLNDIKEKVKNIHGYMKDIENYIQDGKDDYKKQKETELNKVIAQLSECEKHKEKINEDMRLMRQDIDTQKIQERWLQDNLTLRKRNEELKEVEEERKQHLKEMGQMQVLQMKSEHQKLEENIDNIKRNHNLALGRQKGYEEEIIHFKKELREPQFRDAEEKYREMMIVMRTTELVNKDLDIYYKTLDQAIMKFHSMKMEEINKIIRDLWRSTYRGQDIEYIEIRSDADENVSASDKRRNYNYRVVMLKGDTALDMRGRCSAGQKVLASLIIRLALAETFCLNCGIIALDEPTTNLDRENIESLAHALVEIIKSRSQQRNFQLLVITHDEDFVELLGRSEYVEKFYRIKKNIDQCSEIVKCSVSSLGFNVH
B2: sp¦O75915¦PRAF3_HUMAN (protein, UniProt O75915 1-188, looked up)
PRA1 family protein 3: MDVNIAPLRAWDDFFPGSDRFARPDFRDISKWNNRVVSNLLYYQTNYLVVAAMMISIVGFLSPFNMILGGIVVVLVFTGFVWAAHNKDVLRRMKKRYPTTFVMVVMLASYFLISMFGGVMVFVFGITFPLLLMFIHASLRLRNLKNKLENKMEGIGLKRTPMGIVLDALEQQEEGINRLTDYISKVKE
B3: sp¦P61020¦RAB5B_HUMAN (protein, UniProt P61020 2-215, looked up)
Ras-related protein Rab-5B: TSRSTARPNGQPQASKICQFKLVLLGESAVGKSSLVLRFVKGQFHEYQESTIGAAFLTQSVCLDDTTVKFEIWDTAGQERYHSLAPMYYRGAQAAIVVYDITNQETFARAKTWVKELQRQASPSIVIALAGNKADLANKRMVEYEEAQAYADDNSLLFMETSAKTAMNVNDLFLAIAKKLPKSEPQNLGGAAGRSRGVDLHEQSQQNKSQCCSN

The molecules below were run on human HL60 cells (assay: SWATH-MS proteomics, differential protein representation, akirin2 KO vs WT HL60 cells). Conditions: KO vs WT HL60 cells; sheet "Under-represented in KO".
Format: cell-based
Method in brief: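 Differential representation compares akirin2 KO with WT HL60 across three biological replicates, 5 µg digest each, acquired by data-independent SWATH on a 120-min gradient. Library built from combined IDA runs searched with Paragon; proteins accepted at 1% FDR, with total-area-sum normalization.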

Point of comparison: B2, “Fold Change” value 0.4503. Against it:
- B1 — lower, 0.4495
- B3 — higher, 0.4514

Point of comparison: B2, “Log (Fold Change)” value -0.3465. Against it:
- B1 — within 0.2 log units, -0.3473
- B3 — within 0.2 log units, -0.3455
